Tested on: Escherichia coli TOP10
Assay: shrunken log2 fold change of peptide-encoding DNA abundance (4.5 h post-induction vs induction); higher = less antimicrobial activity (less host growth inhibition)
Conditions: time post-induction: 4.5 h; library: site-saturation at positions 5, 18, 19, 20
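Further: peptides expressed intracellularly from a pBAD plasmid library in pooled LB shake-flask culture, induced with 0.3% L-arabinose, DNA abundance read by NGS, three biological replicates, DESeq2 with apeglm shrinkage.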

Sequence | shrunken log2 fold change
RRIRDRPPRLPRPRPRPCLDPRP | -0.0178
RRIRDRPPRLPRPRPRPCMHPRP | 0.175
RRIRDRPPRLPRPRPRPCMSPRP | -0.256
RRIRDRPPRLPRPRPRPCNEPRP | -0.0633
RRIRDRPPRLPRPRPRPCPMPRP | -0.292
RRIRDRPPRLPRPRPRPCSTPRP | 0.248
RRIRDRPPRLPRPRPRPCTAPRP | 0.00714
RRIRDRPPRLPRPRPRPCTKPRP | -0.0891
RRIRDRPPRLPRPRPRPCTQPRP | 0.0408
RRIRDRPPRLPRPRPRPCTTPRP | -0.00176
RRIRDRPPRLPRPRPRPCVEPRP | 0.111
RRIRDRPPRLPRPRPRPCWWPRP | 0.249
RRIRDRPPRLPRPRPRPCYEPRP | 0.00345
RRIRDRPPRLPRPRPRPCYMPRP | -0.192
RRIRDRPPRLPRPRPRPCYSPRP | -0.0729
RRIRDRPPRLPRPRPRPDARPRP | 1.31
RRIRDRPPRLPRPRPRPDCPPRP | -0.0117
RRIRDRPPRLPRPRPRPDDWPRP | 1.08
RRIRDRPPRLPRPRPRPDGYPRP | -0.0204
RRIRDRPPRLPRPRPRPDHAPRP | -0.00822
RRIRDRPPRLPRPRPRPDIYPRP | 0.0286
RRIRDRPPRLPRPRPRPDKIPRP | 0.231
RRIRDRPPRLPRPRPRPDKRPRP | 0.00902
RRIRDRPPRLPRPRPRPDLWPRP | -0.0295
RRIRDRPPRLPRPRPRPDLYPRP | 0.309

Sequence | shrunken log2 fold change
RRIRDRPPRLPRPRPRPDNLPRP | 0.0916
RRIRDRPPRLPRPRPRPDNNPRP | -0.0748
RRIRDRPPRLPRPRPRPDPAPRP | 0.304
RRIRDRPPRLPRPRPRPDQFPRP | -0.00947
RRIRDRPPRLPRPRPRPDRDPRP | -0.0722
RRIRDRPPRLPRPRPRPDRYPRP | -0.395
RRIRDRPPRLPRPRPRPDSCPRP | 0.0444
RRIRDRPPRLPRPRPRPDSDPRP | 0.0999
RRIRDRPPRLPRPRPRPDSIPRP | 0.0726
RRIRDRPPRLPRPRPRPDSLPRP | 0.0462
RRIRDRPPRLPRPRPRPDSPPRP | -0.248
RRIRDRPPRLPRPRPRPDSQPRP | -0.0289
RRIRDRPPRLPRPRPRPDSRPRP | -0.00898
RRIRDRPPRLPRPRPRPDTFPRP | -0.0268
RRIRDRPPRLPRPRPRPDTQPRP | 0.419
RRIRDRPPRLPRPRPRPEACPRP | 0.644
RRIRDRPPRLPRPRPRPEAFPRP | 0.119
RRIRDRPPRLPRPRPRPECAPRP | 1.58
RRIRDRPPRLPRPRPRPECMPRP | 1.07
RRIRDRPPRLPRPRPRPEELPRP | 0.00153
RRIRDRPPRLPRPRPRPEEPPRP | 2.06
RRIRDRPPRLPRPRPRPEFGPRP | 0.914
RRIRDRPPRLPRPRPRPEHFPRP | -0.138
RRIRDRPPRLPRPRPRPEHTPRP | 0.225
RRIRDRPPRLPRPRPRPELNPRP | 1.04

Sequence | shrunken log2 fold change
RRIRDRPPRLPRPRPRPELSPRP | 1.55
RRIRDRPPRLPRPRPRPEMMPRP | 0.71
RRIRDRPPRLPRPRPRPENAPRP | 0.37
RRIRDRPPRLPRPRPRPEPEPRP | 0.579
RRIRDRPPRLPRPRPRPEQQPRP | 0.374
RRIRDRPPRLPRPRPRPERKPRP | 0.0234
RRIRDRPPRLPRPRPRPERYPRP | 0.00592
RRIRDRPPRLPRPRPRPESFPRP | -0.0579
RRIRDRPPRLPRPRPRPESPPRP | 0.000713
RRIRDRPPRLPRPRPRPETMPRP | 0.0179
RRIRDRPPRLPRPRPRPETVPRP | -0.0114
RRIRDRPPRLPRPRPRPEVMPRP | 0.152
RRIRDRPPRLPRPRPRPEVSPRP | 0.3
RRIRDRPPRLPRPRPRPEYRPRP | -0.0165
RRIRDRPPRLPRPRPRPFAAPRP | 1.62
RRIRDRPPRLPRPRPRPFCRPRP | 0.0534
RRIRDRPPRLPRPRPRPFCWPRP | 0.445
RRIRDRPPRLPRPRPRPFDMPRP | 0.0213
RRIRDRPPRLPRPRPRPFDPPRP | -0.119
RRIRDRPPRLPRPRPRPFFPPRP | 0.0715
RRIRDRPPRLPRPRPRPFIEPRP | 0.0849
RRIRDRPPRLPRPRPRPFILPRP | -0.293
RRIRDRPPRLPRPRPRPFKFPRP | -0.122
RRIRDRPPRLPRPRPRPFMVPRP | 0.00751
RRIRDRPPRLPRPRPRPFNFPRP | -0.703

Sequence | shrunken log2 fold change
RRIRDRPPRLPRPRPRPFPFPRP | -0.163
RRIRDRPPRLPRPRPRPFPSPRP | -0.0268
RRIRDRPPRLPRPRPRPFQSPRP | 0.0407
RRIRDRPPRLPRPRPRPFQTPRP | 0.0255
RRIRDRPPRLPRPRPRPFSRPRP | -0.164
RRIRDRPPRLPRPRPRPFTEPRP | -0.165
RRIRDRPPRLPRPRPRPFVPPRP | -0.0913
RRIRDRPPRLPRPRPRPFVSPRP | 0.00609
RRIRDRPPRLPRPRPRPGAPPRP | 0.598
RRIRDRPPRLPRPRPRPGCWPRP | 1.03
RRIRDRPPRLPRPRPRPGDHPRP | 0.00849
RRIRDRPPRLPRPRPRPGDKPRP | 0.088
RRIRDRPPRLPRPRPRPGEEPRP | 0.0844
RRIRDRPPRLPRPRPRPGFFPRP | 0.345
RRIRDRPPRLPRPRPRPGFHPRP | 0.0294
RRIRDRPPRLPRPRPRPGGNPRP | -0.0716
RRIRDRPPRLPRPRPRPGHHPRP | 0.0913
RRIRDRPPRLPRPRPRPGIQPRP | -0.148
RRIRDRPPRLPRPRPRPGMKPRP | -0.00884
RRIRDRPPRLPRPRPRPGPSPRP | -0.0742
RRIRDRPPRLPRPRPRPGQDPRP | 0.945
RRIRDRPPRLPRPRPRPGQGPRP | 0.257
RRIRDRPPRLPRPRPRPGQVPRP | 0.203
RRIRDRPPRLPRPRPRPGRFPRP | 0.315
RRIRDRPPRLPRPRPRPGRHPRP | 0.186

Sequence | shrunken log2 fold change
RRIRDRPPRLPRPRPRPGRVPRP | 0.166
RRIRDRPPRLPRPRPRPGTCPRP | -0.0724
RRIRDRPPRLPRPRPRPGTRPRP | 0.118
RRIRDRPPRLPRPRPRPGVCPRP | 0.358
RRIRDRPPRLPRPRPRPGYCPRP | -0.658
RRIRDRPPRLPRPRPRPGYWPRP | 0.242
RRIRDRPPRLPRPRPRPHATPRP | 0.985
RRIRDRPPRLPRPRPRPHCFPRP | 0.00117
RRIRDRPPRLPRPRPRPHCKPRP | 0.0223
RRIRDRPPRLPRPRPRPHCMPRP | -0.24
RRIRDRPPRLPRPRPRPHCTPRP | -0.0502
RRIRDRPPRLPRPRPRPHEDPRP | 0.0325
RRIRDRPPRLPRPRPRPHEVPRP | 0.0253
RRIRDRPPRLPRPRPRPHFWPRP | -0.0278
RRIRDRPPRLPRPRPRPHGKPRP | 0.0283
RRIRDRPPRLPRPRPRPHGNPRP | -0.149
RRIRDRPPRLPRPRPRPHGSPRP | 0.208
RRIRDRPPRLPRPRPRPHKKPRP | -0.00887
RRIRDRPPRLPRPRPRPHMMPRP | 0.158
RRIRDRPPRLPRPRPRPHMPPRP | 0.0902
RRIRDRPPRLPRPRPRPHMRPRP | 0.00207
RRIRDRPPRLPRPRPRPHMWPRP | 0.0299
RRIRDRPPRLPRPRPRPHPPPRP | 0.402
RRIRDRPPRLPRPRPRPHRLPRP | 0.033
RRIRDRPPRLPRPRPRPHSMPRP | -0.293

Sequence | shrunken log2 fold change
RRIRDRPPRLPRPRPRPHTWPRP | -0.491
RRIRDRPPRLPRPRPRPHTYPRP | -0.163
RRIRDRPPRLPRPRPRPHVPPRP | -0.076
RRIRDRPPRLPRPRPRPHWFPRP | 0.0318
RRIRDRPPRLPRPRPRPHWSPRP | -0.132
RRIRDRPPRLPRPRPRPHYDPRP | 0.0428
RRIRDRPPRLPRPRPRPIAKPRP | 0.0483
RRIRDRPPRLPRPRPRPIDAPRP | -0.264
RRIRDRPPRLPRPRPRPIDCPRP | 0.0306
RRIRDRPPRLPRPRPRPIDFPRP | 0.132
RRIRDRPPRLPRPRPRPIEAPRP | 0.184
RRIRDRPPRLPRPRPRPIENPRP | -0.144
RRIRDRPPRLPRPRPRPIEQPRP | 0.0525
RRIRDRPPRLPRPRPRPIFEPRP | 0.419
RRIRDRPPRLPRPRPRPIHLPRP | -0.0597
RRIRDRPPRLPRPRPRPIIHPRP | -0.483
RRIRDRPPRLPRPRPRPIIRPRP | -0.0604
RRIRDRPPRLPRPRPRPIKYPRP | -0.206
RRIRDRPPRLPRPRPRPILAPRP | 0.115
RRIRDRPPRLPRPRPRPILDPRP | 0.0609
RRIRDRPPRLPRPRPRPILWPRP | 0.00705
RRIRDRPPRLPRPRPRPIMWPRP | -0.00999
RRIRDRPPRLPRPRPRPINTPRP | -0.115
RRIRDRPPRLPRPRPRPIPWPRP | 0.077
RRIRDRPPRLPRPRPRPIRGPRP | -0.0417
